From publication PMC5372222

B1: thrombin 15-mer aptamer protected with PolyA-Oligo10 on AuNP (mixed)
DNA: GGTTGGTGTGGTTGG
?: AAAAAAAAAAAAAAAAAAAACCAACCACAC
modifications: 5'-SH-(CH2)6 thiol on strand 1
B2: thrombin 15-mer aptamer on AuNP (Apt-AuNP) (ssDNA)
DNA: GGTTGGTGTGGTTGG
modifications: 5'-SH-(CH2)6 thiol

How the values were obtained:
human alpha-thrombin [1] = target: T1, human alpha-thrombin (Homo sapiens, UniProt P00734;P00734 328-363;364-622); experiment: blot with protected Apt-AuNP probe and gold enhancement; thrombin in 10-fold diluted human serum on PVDF; protection DNA 1 uM before 10x dilution; as low as 30 ng detected; binding buffer 100 mM NaCl, 20 mM Tris-HCl, 2 mM MgCl2, 5 mM KCl, 1 mM CaCl2, 0.02% Tween 20; pH and temperature of binding not stated
human alpha-thrombin [2] = target: T1, human alpha-thrombin; experiment: blot with Apt-AuNP probe and gold enhancement; thrombin in 10-fold diluted human serum on PVDF; strong background from serum proteins; binding buffer 100 mM NaCl, 20 mM Tris-HCl, 2 mM MgCl2, 5 mM KCl, 1 mM CaCl2, 0.02% Tween 20; pH and temperature of binding not stated

Binder	binding result (human alpha-thrombin [1])	binding result (human alpha-thrombin [2])
B1	binds	
B2		binds
